According to patent publication US20230279118A1 (published 2023):
Positions count from the first letter of the chain named. Names may count otherwise. “And” between values parts separate entries of the source, which are not always exact repeats. Equal values may be shown once.

Columns and labels:
canine FcRn [1] = biological target: T1, canine FcRn (canine); experiment: SPR, pH 5.5, FcRn 200 nM over captured Fc
T1 construct: Injected in solution as SPR analyte

canine FcRn [2] = biological target: T1, canine FcRn; experiment: SPR, pH 5.5, FcRn 400 nM over captured Fc
canine FcRn [3] = biological target: T1, canine FcRn; experiment: SPR, pH 5.5, FcRn 200 nM over captured Fc; remark: listed apart in the source
canine FcRn [4] = biological target: T1, canine FcRn; experiment: SPR, pH 5.5, FcRn 200 nM over captured Fc; remark: listed apart in the source
canine FcRn [5] = biological target: T1, canine FcRn; experiment: SPR, pH 5.5, FcRn 100-800 nM over captured Fc
canine FcRn [6] = biological target: T1, canine FcRn; experiment: SPR, pH 5.5, FcRn 200 nM over captured Fc; remark: listed apart in the source
canine FcRn [7] = biological target: T1, canine FcRn; experiment: SPR, pH 5.5, FcRn 200 nM over captured Fc; remark: listed apart in the source
canine FcRn [8] = biological target: T1, canine FcRn; experiment: SPR, pH 5.5, FcRn 200 nM over captured Fc; remark: listed apart in the source
canine FcRn [9] = biological target: T1, canine FcRn; experiment: SPR, pH 5.5, FcRn 200 nM over captured Fc; remark: listed apart in the source
canine FcRn [10] = biological target: T1, canine FcRn; experiment: SPR, pH 5.5, FcRn 400 nM over captured Fc; average of the wild type replicates
canine FcRn [11] = biological target: T1, canine FcRn; experiment: SPR, pH 5.5, FcRn 200 nM over captured Fc; remark: listed apart in the source

B1: canine IgG.B Fc variant E380A with SASA tag (Fc fusion)
chain: APEMLGGPSVFIFPPKPKDTLLIARTPEVTCVVVDLDPEDPEVQISWFVDGKQMQTAKTQPREEQFNGTYRVVSVLPIGHQDWLKGKQFTCKVNNKALPSPIERTISKARGQAHQPSVYVLPPSREELSKNTVSLTCLIKDFFPPDIDVAWQSNGQQEPESKYRTTPPQLDEDGSYFLYSKLSVDKSRWQRGDTFICAVMHEALHNHYTQESLSHSPGK
Kd (canine FcRn [1]): 1320 nM and 1570 nM
koff (canine FcRn [1]): 0.223 s⁻¹ and 0.239 s⁻¹
kon (canine FcRn [1]): 168000 M⁻¹ s⁻¹ and 152000 M⁻¹ s⁻¹
Kd (canine FcRn [2]): 618 nM and 747 nM
koff (canine FcRn [2]): 0.369 s⁻¹ and 0.18 s⁻¹
kon (canine FcRn [2]): 598000 M⁻¹ s⁻¹ and 241000 M⁻¹ s⁻¹

B2: canine IgG.B Fc variant T250E with SASA tag (Fc fusion)
chain: B1 chain with T20E, A150E
Kd (canine FcRn [3]): 2480 nM and 1660 nM
koff (canine FcRn [3]): 0.284 s⁻¹ and 0.287 s⁻¹
kon (canine FcRn [3]): 114000 M⁻¹ s⁻¹ and 172000 M⁻¹ s⁻¹

B3: canine IgG.B Fc variant M428A with SASA tag (Fc fusion)
chain: B1 chain with A150E, M200A
Kd (canine FcRn [2]): 723 nM and 1670 nM
kon (canine FcRn [2]): 234000 M⁻¹ s⁻¹ and 318000 M⁻¹ s⁻¹

B4: canine IgG.B Fc variant D378V with SASA tag (Fc fusion)
chain: B1 chain with D148V, A150E
Kd (canine FcRn [4]): 693 nM and 873 nM
koff (canine FcRn [4]): 0.159 s⁻¹ and 0.16 s⁻¹
kon (canine FcRn [4]): 229000 M⁻¹ s⁻¹ and 184000 M⁻¹ s⁻¹

B5: canine IgG.B Fc YTE variant (L252Y/A254T/T256E) with SASA tag (Fc fusion)
chain: B1 chain with L22Y, A24T, T26E, A150E
Kd (canine FcRn [5]): 184 nM
koff (canine FcRn [5]): 0.046 s⁻¹
kon (canine FcRn [5]): 250000 M⁻¹ s⁻¹

B6: canine IgG.B Fc variant N434A with SASA tag (Fc fusion)
chain: B1 chain with A150E, N206A
Kd (canine FcRn [2]): 457 nM and 494 nM
koff (canine FcRn [2]): 0.237 s⁻¹ and 0.477 s⁻¹
kon (canine FcRn [2]): 518000 M⁻¹ s⁻¹ and 966000 M⁻¹ s⁻¹
Kd (canine FcRn [6]): 573 nM and 629 nM
koff (canine FcRn [6]): 0.156 s⁻¹ and 0.164 s⁻¹
kon (canine FcRn [6]): 272000 M⁻¹ s⁻¹ and 261000 M⁻¹ s⁻¹

B7: canine IgG.B Fc variant T250A with SASA tag (Fc fusion)
chain: B1 chain with T20A, A150E
Kd (canine FcRn [2]): 335 nM and 328 nM

B8: canine IgG.B Fc variant N434H with SASA tag (Fc fusion)
chain: B1 chain with A150E, N206H
Kd (canine FcRn [5]): 247 nM
koff (canine FcRn [5]): 0.102 s⁻¹
kon (canine FcRn [5]): 411000 M⁻¹ s⁻¹

B9: canine IgG.B Fc variant Q311V with SASA tag (Fc fusion)
chain: B1 chain with Q81V, A150E
Kd (canine FcRn [7]): 372 nM and 439 nM
koff (canine FcRn [7]): 0.566 s⁻¹ and 0.696 s⁻¹
kon (canine FcRn [7]): 1.52e+06 M⁻¹ s⁻¹ and 1.59e+06 M⁻¹ s⁻¹

B10: canine IgG.B Fc variant G309P with SASA tag (Fc fusion)
chain: B1 chain with G79P, A150E
Kd (canine FcRn [8]): 635 nM and 434 nM and 637 nM and 718 nM
koff (canine FcRn [8]): 0.239 s⁻¹ and 0.242 s⁻¹ and 0.132 s⁻¹ and 0.145 s⁻¹
kon (canine FcRn [8]): 377000 M⁻¹ s⁻¹ and 558000 M⁻¹ s⁻¹ and 207000 M⁻¹ s⁻¹ and 202000 M⁻¹ s⁻¹

B11: canine IgG.B Fc variant D378A with SASA tag (Fc fusion)
chain: B1 chain with D148A, A150E
Kd (canine FcRn [2]): 673 nM and 592 nM
koff (canine FcRn [2]): 0.183 s⁻¹ and 0.181 s⁻¹
kon (canine FcRn [2]): 272000 M⁻¹ s⁻¹ and 306000 M⁻¹ s⁻¹

B12: canine IgG.B Fc variant N434Y with SASA tag (Fc fusion)
chain: B1 chain with A150E, N206Y
Kd (canine FcRn [5]): 29.1 nM
koff (canine FcRn [5]): 0.0151 s⁻¹
kon (canine FcRn [5]): 520000 M⁻¹ s⁻¹
Kd (canine FcRn [6]): 15.9 nM
koff (canine FcRn [6]): 0.00968 s⁻¹
kon (canine FcRn [6]): 607000 M⁻¹ s⁻¹

B13: canine IgG.B Fc variant N434S with SASA tag (Fc fusion)
chain: B1 chain with A150E, N206S
Kd (canine FcRn [6]): 924 nM and 1050 nM
koff (canine FcRn [6]): 0.207 s⁻¹ and 0.209 s⁻¹
kon (canine FcRn [6]): 225000 M⁻¹ s⁻¹ and 199000 M⁻¹ s⁻¹

B14: canine IgG.B Fc variant T256A with SASA tag (Fc fusion)
chain: B1 chain with T26A, A150E
Kd (canine FcRn [2]): 447 nM and 298 nM

B15: canine IgG.B Fc variant Q285A with SASA tag (Fc fusion)
chain: B1 chain with Q55A, A150E
Kd (canine FcRn [2]): 341 nM and 257 nM

B16: canine IgG.B Fc variant T286A with SASA tag (Fc fusion)
chain: B1 chain with T56A, A150E
Kd (canine FcRn [2]): 464 nM and 569 nM
koff (canine FcRn [2]): 0.196 s⁻¹ and 0.304 s⁻¹
kon (canine FcRn [2]): 422000 M⁻¹ s⁻¹ and 533000 M⁻¹ s⁻¹

B17: canine IgG.B Fc variant L252A with SASA tag (Fc fusion)
chain: B1 chain with L22A, A150E
Kd (canine FcRn [2]): 292 nM and 240 nM

B18: canine IgG.B Fc variant P307A with SASA tag (Fc fusion)
chain: B1 chain with P77A, A150E
Kd (canine FcRn [2]): 325 nM and 338 nM

B19: canine IgG.B Fc variant A254T with SASA tag (Fc fusion)
chain: B1 chain with A24T, A150E
Kd (canine FcRn [9]): 2290 nM and 1340 nM
koff (canine FcRn [9]): 0.375 s⁻¹ and 0.433 s⁻¹
kon (canine FcRn [9]): 163000 M⁻¹ s⁻¹ and 323000 M⁻¹ s⁻¹

B20: canine IgG.B Fc variant H433A with SASA tag (Fc fusion)
chain: B1 chain with A150E, H205A
Kd (canine FcRn [2]): 266 nM and 359 nM
koff (canine FcRn [2]): 0.229 s⁻¹ and 0.0997 s⁻¹

B21: canine IgG.B Fc variant G309A with SASA tag (Fc fusion)
chain: B1 chain with G79A, A150E
Kd (canine FcRn [2]): 245 nM and 294 nM

B22: canine IgG.B Fc variant Q311A with SASA tag (Fc fusion)
chain: B1 chain with Q81A, A150E
Kd (canine FcRn [2]): 368 nM and 370 nM
koff (canine FcRn [2]): 0.894 s⁻¹ and 0.496 s⁻¹
kon (canine FcRn [2]): 2.43e+06 M⁻¹ s⁻¹ and 1.34e+06 M⁻¹ s⁻¹

B23: canine IgG.B Fc variant I308A with SASA tag (Fc fusion)
chain: B1 chain with I78A, A150E
Kd (canine FcRn [2]): 472 nM and 563 nM
koff (canine FcRn [2]): 0.169 s⁻¹ and 0.194 s⁻¹
kon (canine FcRn [2]): 357000 M⁻¹ s⁻¹ and 345000 M⁻¹ s⁻¹

B24: canine IgG.B Fc variant N434R with SASA tag (Fc fusion)
chain: B1 chain with A150E, N206R
Kd (canine FcRn [5]): 182 nM
koff (canine FcRn [5]): 0.0801 s⁻¹
kon (canine FcRn [5]): 440000 M⁻¹ s⁻¹
Kd (canine FcRn [6]): 107 nM and 159 nM
koff (canine FcRn [6]): 0.0524 s⁻¹ and 0.0633 s⁻¹
kon (canine FcRn [6]): 488000 M⁻¹ s⁻¹ and 399000 M⁻¹ s⁻¹

B25: canine IgG.B Fc variant K315A with SASA tag (Fc fusion)
chain: B1 chain with K85A, A150E
Kd (canine FcRn [2]): 422 nM and 548 nM

B26: canine IgG.B Fc variant T250Q with SASA tag (Fc fusion)
chain: B1 chain with T20Q, A150E
Kd (canine FcRn [3]): 2590 nM and 2840 nM
koff (canine FcRn [3]): 0.258 s⁻¹ and 0.268 s⁻¹
kon (canine FcRn [3]): 99600 M⁻¹ s⁻¹ and 94300 M⁻¹ s⁻¹

B27: canine IgG.B Fc variant Y436A with SASA tag (Fc fusion)
chain: B1 chain with A150E, Y208A
Kd (canine FcRn [2]): 393 nM and 876 nM
koff (canine FcRn [2]): 0.407 s⁻¹ and 0.213 s⁻¹

B28: canine IgG.B Fc variant N434W with SASA tag (Fc fusion)
chain: B1 chain with A150E, N206W
Kd (canine FcRn [5]): 101 nM
koff (canine FcRn [5]): 0.045 s⁻¹
kon (canine FcRn [5]): 446000 M⁻¹ s⁻¹
Kd (canine FcRn [6]): 40.4 nM and 75.7 nM

B29: wild-type canine IgG.B Fc (CH2 and CH3 domains) with upstream SASA tag (Fc fusion)
chain: B1 chain with A150E
Kd (canine FcRn [9]): 2050 nM and 2990 nM
koff (canine FcRn [9]): 0.31 s⁻¹ and 0.315 s⁻¹
kon (canine FcRn [9]): 151000 M⁻¹ s⁻¹ and 105000 M⁻¹ s⁻¹
Kd (canine FcRn [5]): 3150 nM
koff (canine FcRn [5]): 0.527 s⁻¹
kon (canine FcRn [5]): 168000 M⁻¹ s⁻¹
Kd (canine FcRn [1]): 1560 nM and 754 nM
koff (canine FcRn [1]): 0.179 s⁻¹ and 0.182 s⁻¹
kon (canine FcRn [1]): 115000 M⁻¹ s⁻¹ and 242000 M⁻¹ s⁻¹
Kd (canine FcRn [8]): 884 nM and 862 nM
koff (canine FcRn [8]): 0.21 s⁻¹ and 0.218 s⁻¹
kon (canine FcRn [8]): 237000 M⁻¹ s⁻¹ and 253000 M⁻¹ s⁻¹
Kd (canine FcRn [3]): 8990 nM and 3110 nM
koff (canine FcRn [3]): 0.347 s⁻¹ and 0.354 s⁻¹
kon (canine FcRn [3]): 38700 M⁻¹ s⁻¹ and 114000 M⁻¹ s⁻¹
Kd (canine FcRn [10]): 566 nM
Kd (canine FcRn [11]): 1710 nM and 2660 nM
koff (canine FcRn [11]): 0.288 s⁻¹ and 0.326 s⁻¹
kon (canine FcRn [11]): 168000 M⁻¹ s⁻¹ and 123000 M⁻¹ s⁻¹
Kd (canine FcRn [6]): 955 nM and 1310 nM
koff (canine FcRn [6]): 0.181 s⁻¹ and 0.209 s⁻¹
kon (canine FcRn [6]): 190000 M⁻¹ s⁻¹ and 159000 M⁻¹ s⁻¹
Kd (canine FcRn [7]): 639 nM and 692 nM
koff (canine FcRn [7]): 0.17 s⁻¹ and 0.171 s⁻¹
kon (canine FcRn [7]): 267000 M⁻¹ s⁻¹ and 247000 M⁻¹ s⁻¹
Kd (canine FcRn [4]): 502 nM and 784 nM
koff (canine FcRn [4]): 0.169 s⁻¹ and 0.207 s⁻¹
kon (canine FcRn [4]): 336000 M⁻¹ s⁻¹ and 264000 M⁻¹ s⁻¹

B30: canine IgG.B Fc variant L252M with SASA tag (Fc fusion)
chain: B1 chain with L22M, A150E
Kd (canine FcRn [11]): 869 nM and 774 nM
koff (canine FcRn [11]): 0.168 s⁻¹ and 0.169 s⁻¹
kon (canine FcRn [11]): 193000 M⁻¹ s⁻¹ and 218000 M⁻¹ s⁻¹

B31: canine IgG.B Fc variant L252Y with SASA tag (Fc fusion)
chain: B1 chain with L22Y, A150E
Kd (canine FcRn [5]): 173 nM
koff (canine FcRn [5]): 0.0476 s⁻¹
kon (canine FcRn [5]): 275000 M⁻¹ s⁻¹
Kd (canine FcRn [11]): 98.7 nM and 114 nM
koff (canine FcRn [11]): 0.0397 s⁻¹ and 0.041 s⁻¹
kon (canine FcRn [11]): 402000 M⁻¹ s⁻¹ and 358000 M⁻¹ s⁻¹

B32: canine IgG.B Fc variant A254S with SASA tag (Fc fusion)
chain: B1 chain with A24S, A150E
Kd (canine FcRn [2]): 340 nM and 317 nM
